Results published in US20050261472A1, “Binding moieties for fibrin” (Dyax Corp., priority 1999, published 2005).
Bridge positions count the residues as written; N and C are the ends. Ends that are not written are not given here.

T1: dried fibrin (UniProt P02671 36-629; P02675 45-491; P02679 27-437, limits assumed)
T1 construct: Polymerised fibrin made in 96-well plates from fibrinogen and thrombin, dried at 37 C and rehydrated; also called (rehydrated) dried fibrin; fibrin target
T1 sequence (looked up) 1: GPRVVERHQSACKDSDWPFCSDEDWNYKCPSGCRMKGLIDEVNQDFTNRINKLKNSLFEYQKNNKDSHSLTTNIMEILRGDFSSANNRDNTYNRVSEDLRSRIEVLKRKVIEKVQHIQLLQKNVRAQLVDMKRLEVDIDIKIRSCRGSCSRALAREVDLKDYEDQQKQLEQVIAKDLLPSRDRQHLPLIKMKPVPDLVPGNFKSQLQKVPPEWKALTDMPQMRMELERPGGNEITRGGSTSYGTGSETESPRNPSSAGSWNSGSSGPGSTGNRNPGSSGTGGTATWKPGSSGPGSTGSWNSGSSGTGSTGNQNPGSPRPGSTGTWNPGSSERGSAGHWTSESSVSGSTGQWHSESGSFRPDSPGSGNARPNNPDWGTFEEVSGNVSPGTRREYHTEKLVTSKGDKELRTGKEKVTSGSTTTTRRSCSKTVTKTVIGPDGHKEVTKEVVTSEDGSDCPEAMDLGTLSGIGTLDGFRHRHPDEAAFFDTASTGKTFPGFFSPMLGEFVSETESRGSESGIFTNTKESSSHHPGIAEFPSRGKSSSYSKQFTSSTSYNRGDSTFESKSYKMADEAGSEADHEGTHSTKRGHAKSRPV
T1 sequence (looked up) 2: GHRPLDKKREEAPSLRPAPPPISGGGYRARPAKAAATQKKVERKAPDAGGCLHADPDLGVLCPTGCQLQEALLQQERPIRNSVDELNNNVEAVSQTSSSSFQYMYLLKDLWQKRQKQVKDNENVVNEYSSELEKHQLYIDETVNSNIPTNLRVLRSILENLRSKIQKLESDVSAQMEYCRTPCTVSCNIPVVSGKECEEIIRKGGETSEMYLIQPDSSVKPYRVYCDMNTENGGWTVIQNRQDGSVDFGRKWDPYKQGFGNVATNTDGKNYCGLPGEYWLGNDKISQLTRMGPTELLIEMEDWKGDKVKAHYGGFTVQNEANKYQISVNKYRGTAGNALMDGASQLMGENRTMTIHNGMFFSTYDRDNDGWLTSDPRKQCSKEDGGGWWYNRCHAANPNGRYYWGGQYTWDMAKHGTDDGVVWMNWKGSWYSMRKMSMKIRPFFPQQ
T1 sequence (looked up) 3: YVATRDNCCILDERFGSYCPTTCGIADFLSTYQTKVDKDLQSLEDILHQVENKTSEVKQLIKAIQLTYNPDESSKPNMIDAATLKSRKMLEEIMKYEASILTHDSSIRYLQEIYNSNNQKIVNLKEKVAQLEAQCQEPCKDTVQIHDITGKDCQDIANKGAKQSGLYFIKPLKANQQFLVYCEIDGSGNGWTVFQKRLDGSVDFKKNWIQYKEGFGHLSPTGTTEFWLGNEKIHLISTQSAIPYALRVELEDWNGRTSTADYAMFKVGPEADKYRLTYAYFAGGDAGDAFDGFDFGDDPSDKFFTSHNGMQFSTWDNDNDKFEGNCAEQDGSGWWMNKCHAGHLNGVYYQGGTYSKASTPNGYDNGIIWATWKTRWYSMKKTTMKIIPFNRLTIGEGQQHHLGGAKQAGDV

B1: alanine scan peptide LACDYYGTCLD (peptide)
peptide: H-LACDYYGTCLD-NH2
modifications: disulfide 3-9
SMILES: CC(C)C[C@H](NC(=O)[C@@H]1CSSC[C@H](NC(=O)[C@H](C)NC(=O)[C@@H](N)CC(C)C)C(=O)N[C@@H](CC(=O)O)C(=O)N[C@@H](Cc2ccc(O)cc2)C(=O)N[C@@H](Cc2ccc(O)cc2)C(=O)NCC(=O)N[C@@H]([C@@H](C)O)C(=O)N1)C(=O)N[C@@H](CC(=O)O)C(N)=O
B2: alanine scan peptide LPCDAYGTCLD (peptide)
peptide: H-LPCDAYGTCLD-NH2
modifications: disulfide 3-9
SMILES: CC(C)C[C@H](NC(=O)[C@@H]1CSSC[C@H](NC(=O)[C@@H]2CCCN2C(=O)[C@@H](N)CC(C)C)C(=O)N[C@@H](CC(=O)O)C(=O)N[C@@H](C)C(=O)N[C@@H](Cc2ccc(O)cc2)C(=O)NCC(=O)N[C@@H]([C@@H](C)O)C(=O)N1)C(=O)N[C@@H](CC(=O)O)C(N)=O
B3: alanine scan peptide LPCDYYGTCAD (peptide)
peptide: H-LPCDYYGTCAD-NH2
modifications: disulfide 3-9
SMILES: CC(C)C[C@H](N)C(=O)N1CCC[C@H]1C(=O)N[C@H]1CSSC[C@@H](C(=O)N[C@@H](C)C(=O)N[C@@H](CC(=O)O)C(N)=O)NC(=O)[C@H]([C@@H](C)O)NC(=O)CNC(=O)[C@H](Cc2ccc(O)cc2)NC(=O)[C@H](Cc2ccc(O)cc2)NC(=O)[C@H](CC(=O)O)NC1=O
B4: synthetic polypeptide RPCNYYGTCLH (peptide)
peptide: H-RPCNYYGTCLH-NH2
modifications: disulfide 3-9
SMILES: CC(C)C[C@H](NC(=O)[C@@H]1CSSC[C@H](NC(=O)[C@@H]2CCCN2C(=O)[C@@H](N)CCCNC(=N)N)C(=O)N[C@@H](CC(N)=O)C(=O)N[C@@H](Cc2ccc(O)cc2)C(=O)N[C@@H](Cc2ccc(O)cc2)C(=O)NCC(=O)N[C@@H]([C@@H](C)O)C(=O)N1)C(=O)N[C@@H](Cc1c[nH]cn1)C(N)=O
notes: Solid-phase synthesis; disulfide loop between the cysteines
B5: synthetic polypeptide RPCDYYGTCFD (peptide)
peptide: H-RPCDYYGTCFD-NH2
modifications: disulfide 3-9
SMILES: C[C@@H](O)[C@@H]1NC(=O)CNC(=O)[C@H](Cc2ccc(O)cc2)NC(=O)[C@H](Cc2ccc(O)cc2)NC(=O)[C@H](CC(=O)O)NC(=O)[C@@H](NC(=O)[C@@H]2CCCN2C(=O)[C@@H](N)CCCNC(=N)N)CSSC[C@@H](C(=O)N[C@@H](Cc2ccccc2)C(=O)N[C@@H](CC(=O)O)C(N)=O)NC1=O
notes: as for B4
B6: synthetic polypeptide LPCSYYGTCLH (peptide)
peptide: H-LPCSYYGTCLH-NH2
modifications: disulfide 3-9
SMILES: CC(C)C[C@H](NC(=O)[C@@H]1CSSC[C@H](NC(=O)[C@@H]2CCCN2C(=O)[C@@H](N)CC(C)C)C(=O)N[C@@H](CO)C(=O)N[C@@H](Cc2ccc(O)cc2)C(=O)N[C@@H](Cc2ccc(O)cc2)C(=O)NCC(=O)N[C@@H]([C@@H](C)O)C(=O)N1)C(=O)N[C@@H](Cc1c[nH]cn1)C(N)=O
notes: as for B4

Tests used:
[1] = biological target: DD(E) soluble fibrin-derived polypeptide (UniProt P02671); assay: Kd against DD(E) target
[2] = biological target: DD(E) soluble fibrin-derived polypeptide (UniProt P02671); assay: synthetic peptide, Kd against DD(E) target
dried fibrin [3] = biological target: T1, dried fibrin; assay: dried fibrin plate, bound vs free peptide
Method: (§1) A fibrinogen solution was prepared at 10 mg/ml (or at twice the concentration of fibrin desired) in TBS buffer (50 mM Tris, 150 mM NaCl, pH 7.4). The fibrinogen solution typically contained ˜17 mM citrate. Subsequently, a solution was prepared containing 2 U/ml thrombin, 20 mM CaCl₂, and 5 mM ε-aminocaproic acid in TBS. The fibrinogen solution and thrombin solution were mixed 1:1 in the wells of a 96-well plate, aliquoting 50 μL of each solution in each well (total volume=100 μL). The plates were evaporated to dryness overnight at 37° C. The polypeptide to be tested, dissolved in water, was added to each well at concentrations between 1-200 μM. […] The plate containing the peptide and (rehydrated) dried fibrin was covered and incubated at 37° C. on a shaker table for 2 hours.
(§2) The supernatant in each well was removed by pipette and the concentration of the polypeptide was measured by mass spectrometry. The ion current detected at the mass of the peptide was monitored after injection of a sample into the mass spectrometer. The area-under-the-peak was quantitated and compared to standards of known concentration. The concentration of peptide in the supernatant is equal to the concentration of free peptide. The concentration of bound peptide was determined by subtracting the concentration of free peptide from the total (starting) concentration. A plot of [Bound Peptide] vs. [Free Peptide] was used to determine the Kd and the concentration of bound peptide at saturation. The curve was fit to the equation: [Bound]=N×[Free]/(Kd+[Free]) where [Bound] is the concentration of bound polypeptide, [Free] is the concentration of free polypeptide, Kd is the dissociation constant (equal to the reciprocal of Kₐ) and N is the concentration of binding sites. The number of binding sites per fibrin molecule was equal to the lo concentration of binding sites determined by the [Bound Polypeptide] vs. [Free Polypeptide] plot, divided by the concentration of fibrin (15 μM) used in the assay.

dried fibrin [4] = biological target: T1, dried fibrin; assay: dried fibrin plate, free peptide by mass spectrometry, bound vs free fit
Method: as §1, §2

dried fibrin [5] = biological target: T1, dried fibrin; assay: dried fibrin plate, bound vs free peptide; remark: listed apart in the source

Row | Binder | Kd [1] [µM] | Kd (dried fibrin [3]) [µM] | Kd (dried fibrin [4]) [µM] | other results
1 | QWECPYGLCWIQ (disulfide 4-9 (inferred)) | 2.96 |  |  | Kd [2]: 2.96 µM
2 | WFHCPYDLCHIL (disulfide 4-9 (inferred)) | 2.63 |  |  | Kd [2]: 2.63 µM
3 | B1 |  | 31 |  | 
4 | LPCDYYATCLD (C-terminal amide; N-terminus free) [alanine scan peptide LPCDYYATCLD] |  | 41 |  | 
5 | B2 |  | 16 |  | 
6 | B3 |  | 32 |  | 
7 | B4 |  |  | 8.5 | 
8 | B5 |  |  | 6.8 | 
9 | GQWECPYGLCWIQ (disulfide 5-10; not fully specified (N-terminus); also: Gd(III) chelate of DTPA) [Gd-DTPA-Gly[SEQ ID NO: 22]] | 3.1 |  |  | Kd (dried fibrin [5]): 3.6 µM
10 | B6 |  |  | 13 | 
